In article PMC4218836 (2014):
Positions count from the first letter of the chain named.

Legend:
GST-RhoAL63 [1] = target: T1, GST-RhoAL63 (UniProt P61586 1-193, L63); experiment: SPR
GST-RhoBL63 [2] = target: T2, GST-RhoBL63 (UniProt P62745 1-196, L63); experiment: SPR
GST-RhoAL63 [3] = target: T1, GST-RhoAL63; experiment: SPR; remark: listed apart in the source
GST-RhoBL63 [4] = target: T2, GST-RhoBL63; experiment: SPR; remark: listed apart in the source
6xHis-RhoBL63 = 6xHis-RhoBL63 (UniProt P62745 1-196, L63); experiment: ELISA
6xHis-RhoAL63 = 6xHis-RhoAL63 (UniProt P61586 1-193, L63); experiment: ELISA
Chain of 6xHis-RhoAL63 (P61586 other isoform, or with tags, fused parts or gaps L63): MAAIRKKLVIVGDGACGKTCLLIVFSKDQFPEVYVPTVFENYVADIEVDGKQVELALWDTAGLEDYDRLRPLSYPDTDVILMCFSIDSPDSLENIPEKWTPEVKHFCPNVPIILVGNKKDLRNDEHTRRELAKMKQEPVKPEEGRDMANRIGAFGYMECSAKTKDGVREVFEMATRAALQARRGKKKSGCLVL

T2 sequence (P62745 other isoform, or with tags, fused parts or gaps L63): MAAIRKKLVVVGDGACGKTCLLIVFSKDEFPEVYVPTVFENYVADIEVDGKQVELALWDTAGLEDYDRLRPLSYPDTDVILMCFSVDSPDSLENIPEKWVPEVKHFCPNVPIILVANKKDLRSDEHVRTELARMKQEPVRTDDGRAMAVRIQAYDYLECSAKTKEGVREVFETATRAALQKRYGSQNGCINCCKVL
T1 sequence (P61586 other isoform, or with tags, fused parts or gaps L63): as the sequence (P61586 other isoform, or with tags, fused parts or gaps L63) above
Chain of 6xHis-RhoBL63 (P62745 other isoform, or with tags, fused parts or gaps L63): as the sequence (P62745 other isoform, or with tags, fused parts or gaps L63) above

B1: scFvE3 (soluble, in fusion with the N-terminal domain of the phage P3 protein) (scFv, V domains shown)
VH: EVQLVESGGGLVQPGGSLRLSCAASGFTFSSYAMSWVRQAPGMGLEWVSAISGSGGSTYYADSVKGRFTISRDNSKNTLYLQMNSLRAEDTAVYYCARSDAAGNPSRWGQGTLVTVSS
VL: SSELTQDPAVSVALGQTVRITCQGDSLRSYYTSWYQQKPGQAPVRVIYGKNNRPSGVPDRFSGSSSGNTASLTITGAQAEDEADYYCNSRDSSGNHAYVFGGGTKLTVL
With B1 the koff (GST-RhoAL63 [1]) was 0.0176 s⁻¹, the koff (GST-RhoBL63 [2]) was 0.000683 s⁻¹ and the Kd (GST-RhoAL63 [3]) was 36.9 nM. It also gave a Kd (GST-RhoBL63 [4]) of 3.14 nM.

B2: scFvF7 (soluble, in fusion with the N-terminal domain of the phage P3 protein) (scFv, V domains shown)
VH: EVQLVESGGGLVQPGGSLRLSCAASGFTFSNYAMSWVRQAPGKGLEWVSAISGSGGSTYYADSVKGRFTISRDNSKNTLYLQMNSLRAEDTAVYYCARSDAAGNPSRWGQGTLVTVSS
VL: B1 VL with T32A, R45L, V57I, S89T
For B2, the koff (GST-RhoAL63 [1]) was 0.000248 s⁻¹, the koff (GST-RhoBL63 [2]) was 0.000414 s⁻¹ and the Kd (GST-RhoAL63 [3]) was 2.35 nM. For the same binder, the Kd (GST-RhoBL63 [4]) was 3.39 nM.

B3: scFvA5 (soluble, in fusion with the N-terminal domain of the phage P3 protein) (scFv, V domains shown)
VH: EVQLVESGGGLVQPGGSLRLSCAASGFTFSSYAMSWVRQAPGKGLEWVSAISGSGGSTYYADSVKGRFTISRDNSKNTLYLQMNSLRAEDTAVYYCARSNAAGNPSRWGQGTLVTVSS
VL: B1 VL with T32A, R45L, V57I
B3 gave a Kd (6xHis-RhoBL63) of 24 nM and a Kd (6xHis-RhoAL63) of 24.5 nM.

B4: scFvD10 (soluble, in fusion with the N-terminal domain of the phage P3 protein) (scFv, V domains shown)
VH: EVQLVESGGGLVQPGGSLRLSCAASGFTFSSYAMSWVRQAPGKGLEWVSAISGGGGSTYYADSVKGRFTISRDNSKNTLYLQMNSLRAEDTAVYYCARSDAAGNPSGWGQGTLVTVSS
VL: B1 VL with T32A, R45L, V57I
In the case of B4, the koff (GST-RhoAL63 [1]) is reported as 0.00297 s⁻¹ and the Kd (GST-RhoAL63 [3]) is reported as 39.6 nM.
